Reference: the supplement of paper PMC9170038

Test system: K4 kissing-loop RNA reporter
Experiment: apparent KD of K4 kissing-loop reporter; higher = weaker reporter binding
Settings: Eterna round: R107
Protocol: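 RNA-MaP round R107: designed RNA switches with theophylline, tryptophan, arginine or FMN aptamers are transcribed on-chip within common flanks. They are titrated with a labelled K4 kissing-loop RNA reporter in RNA-MaP buffer (100 mM Tris pH 7.5, 80 mM KCl, 4 mM MgCl2), without ligand or with the indicated ligand. Median apparent KD per design.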

[1] = input ligand: theophylline 20 uM
[2] = input ligand: tryptophan 2.4 mM
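Note: bound reporter read as fluorescence of individual clusters on recovered sequencing chips by microscopy, with normalized cluster intensities fitted with a binding model.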

| Sequence | apparent KD of K4 kissing-loop reporter (input ligand: FMN 200 uM) [µM] | apparent KD of K4 kissing-loop reporter (input ligand: arginine 13.2 mM) [µM] | apparent KD of K4 kissing-loop reporter (input ligand: none) [µM] | apparent KD of K4 kissing-loop reporter [1] [µM] | apparent KD of K4 kissing-loop reporter [2] [µM] |
| --- | --- | --- | --- | --- | --- |
| UGUGGAGAAUAUGAUACCAGCAGUGAGAGAGAGGAAGUAUAGUGAUGUUAUAUGAGAGAAUGCCCUUGGCAGCAUAUGUAGAAGG [SSTheophylB.F] | 0.133 | 0.154 | 0.107 | 0.0936 | 0.128 |
| CGCCGUAAGGCGGUCGCUCCCACUCCGGAAGGAGCGCCCGGAAGGGCAGGUAGGUCGCCGGAGUGAUGUUCCGGUGGAGGGACCG [#2 Exclusion - Arginine A Attempt #9 (Inspired by Omei)] | 0.587 | 0.295 | 0.365 | 0.27 | 0.367 |
| GGCGCCAGGAAAGGAUAUCUAAGUCUAUUAUCAAGAAUUGCCUCAAGAUCGGAGUGAUGUUCCCAGAGAGAAGGUUCUAUCCGCU [theeternabot_exclusion_KL_FMN_B_38] | 0.17 | 0.193 | 0.186 | 0.206 | 0.164 |
| AUGCGCGCGGCGGCCGCCACUCGCAUGAGAGUGAUGUUCUCGCCGUGCCCGCAAGGGUGCGGUGUGAGGACCGGGCCGGGCUGCG [#2 Same State - Tryptophan B Attempt #19 (HarryS)] | 0.562 | 0.143 | 0.194 | 0.154 | 0.302 |
| AGACUACCACACUGUCAAUAGACAGUGAAUUAGGAUAUGCUGAUAAGCAGAAGGAGUGAUGUUCCCAGGUAGUCAAUAAAAUAAU [FmnAX 13 U30+C66] | 0.169 | 0.124 | 0.167 | 0.202 | 0.177 |
| GGAAGGAAGGAAACCAACCAACCAACCGAUACCAGCGGAAGAGAACGCCCUUGGCAGCGGAGAAAGCCAGUGAUGUUGGAAAGAA | 0.324 | 0.224 | 0.402 | 0.3 | 0.318 |
| UAACGCUGACAGCAACAAUUCGGGCCUGAUACCAGCAAUUUUUCAUGCCCUUGGCAGCAGAGUGAUGUUUUCUGUCUAUUUAGUC [theeternabot_exclusion_KL_Theo_A_23] | 0.628 | 0.723 | 0.864 | 0.7 | 0.52 |
| UAAAAUAAAUAAUAGAGAUAAUUACUCGAAGGAGCGACGAAUUCGUCAGGUAGGUCGCGAGUGAUGUUCGCAAAUAUUAUCUCAU [AK3 Exc Arginine A] | 0.212 | 0.328 | 0.295 | 0.345 | 0.261 |
| GUAGGAUGAGGAGGAGGAUGAAUUACUGAAGGAGCGCAAAGAAAUGCAGGUAGGUCGCGGUAAAGAAGUAUAGUGAUGUUAUAUA [SSArgA.E] | 0.4 | 0.301 | 0.413 | 0.426 | 0.31 |
| CAGAACUUGUAUAUAGGGUAUAUAAGAGAUACCAGUCAAAUUAAAGACCCUUGGCAGCUCAGGCGAGUGAUGUUCGCAGGCUAAC [Exclusion Theophylline A GF 17] | 0.112 | 0.111 | 0.113 | 0.133 | 0.0911 |
| AGACUACCACACUGUCAAUAGACAGUGAACUAGGAUAUGCUGAUAAGCAGAAGGAGUGAUGUUCCUUGGUAGUCAAUAAAAUAAU [FmnAX 13 U67] | 0.308 | 0.27 | 0.298 | 0.33 | 0.289 |
| UUUGGAGUGGGAGGAUAUCCUAAUAUGGGUGAUGUUAGCGAUGUUGAAAGUGUAGUGAUGUUGUGCGGAGAAGGUCCAGUGUAGA [BDazzled - #14 - Exc. FMN B] | 0.242 | 0.165 | 0.285 | 0.292 | 0.24 |
| AUUUGUUUAUGUGAUACCAGACUAAGCAGUGAUGUUGCUUUUAUUUUUGAAUUUUAAAUAGUCCCUUGGCAGCACUAUGUCUGUA [#05 K4 Theophylline B Same State] | 0.0964 | 0.147 | 0.135 | 0.161 | 0.0942 |
| GCAGUGAUGUUGCGCGGGUACGGUAGAGUGCGAGGACCGGUACGGCCGCCACUCGUACGGAACUGGCUAAUAUAUGGAUAGGUGA [V] | 0.496 | 0.318 | 0.446 | 0.406 | 0.243 |
| UUGUUAUGAUAAAAUCCUGUUUGAUAAAGACAGGAUAUAGAAAAUACUAGAAGGGUCAUUAUAUGCAGUGAUGUUGCAAAUAAGU [Exclusion FMN A Gf 22] | 0.041 | 0.0608 | 0.0384 | 0.0551 | 0.035 |
| GGAUCCACCAGUGAUGUUGGAGAAAACUCGAAGGAUAUGACGAAAGUCAGAAGGUCGUAGACUGGACAAAGUCCGGUCGGAUCCA [FmnA 19 G30+C56] | 0.499 | 0.541 | 0.539 | 0.49 | 0.461 |
| UCGCAUUAACCGGAUACCAGCUUAGUGGGAUCUUCAAUCCGACAGAAAGUGAUGUUUUCUAGCCCUUGGCAGCCGAGAUUAUCAC [theeternabot_sameState_KL_Theo_B_50] | 0.231 | 0.333 | 0.331 | 0.412 | 0.348 |
| UACAGGGAUAGUGAUGUUAUCCCAUGUGAUACCAGUGCCAUCCAACACCCUUGGCAGCAUACGGGCAGUGAUGUUGUUCUUGGUA [#16 K4 Theophylline A Exclusion] | 0.0898 | 0.0798 | 0.086 | 0.0861 | 0.0801 |
| UAUCUAUGCUCGGCCGCCACUAGGACCGGGAUCUCUCUAGUGAUGUUAGUCUGAUCGGCCGCCACUAGGACCGGGAGUGUAGAUA [KL-SSTryp-B15 #DoubleAptamer] | 0.101 | 0.0887 | 0.0912 | 0.104 | 0.0803 |
| AGAGAUAUAUGAGGAUAUGGGUUUGUUAAUGAGUUAGUUUUAGUGUUGUUUGGUUAGUGAUGUUAUUUAGAAGGCGUGAGUGAUG [aatrmullin] | 0.0942 | 0.0623 | 0.0614 | 0.0784 | 0.0622 |
| UGACUGGAUGGAAGGAGCGCUAAACUCCUAGUGAUGUUAGGGACAUGAGGCACAGCCUUGAAGCAGGUAGGUCGCCAUCUAGUCU [FiskerMod 28 - Jieux - Same State - Arginine B] | 0.197 | 0.135 | 0.176 | 0.166 | 0.174 |

| Sequence | apparent KD of K4 kissing-loop reporter (input ligand: FMN 200 uM) [µM] | apparent KD of K4 kissing-loop reporter (input ligand: arginine 13.2 mM) [µM] | apparent KD of K4 kissing-loop reporter (input ligand: none) [µM] | apparent KD of K4 kissing-loop reporter [1] [µM] | apparent KD of K4 kissing-loop reporter [2] [µM] |
| --- | --- | --- | --- | --- | --- |
| GAUGAUCGCGCGGCCGCCACUGGUCAGUGAUGUUGACAUUAAUGCGCCGAGUAGUAACGGCGCAACAGGACCGGGCGCGAUGUAG [#11 K4 Tryptophan B Same State] | 0.165 | 0.16 | 0.143 | 0.185 | 0.171 |
| GUUAUUCUAAACGCAGUAGUGAUGUUGAUGCGAGGACCGGUACGGCCGCCACUCGACUGCCGUCACGCCCGUCCAACAGCCGGAG [theeternabot_exclusion_KL_Trp_A_20] | 0.431 | 0.142 | 0.478 | 0.254 | 0.268 |
| ACGACGCAUAGUGAUACCAGCAUUAUAUGAGUGAUGUUCUACCUAAAAUGGUAAUAAUUAUGCCCUUGGCAGCACUAUGCGUCAG [KL-SSTheoB3] | 0.34 | 0.4 | 0.409 | 0.501 | 0.247 |
| GCGCGUCAUGUCAGCGGUGACUACGUCGAUACCAGCAGGGAAACCUGCCCUUGGCAGCGACGCGCUGGAGUGAUGUUCCGACAGA [#2 Exclusion - Theophylline A Attempt #5 (HarryS)] | 0.218 | 0.247 | 0.192 | 0.309 | 0.176 |
| UGUACCGAGUCAGGAUAUGGCGUCGAAAGACGAAUGCUAGUGAUGUUAGGGAUCUGCGAAAGCAGUUCAGAAGGGACUUGGUACU [FmnBS 26 G36+U67] | 0.275 | 0.292 | 0.404 | 0.379 | 0.338 |
| CCUCACGUAGGACUAGUGAUGUUAGACUACCGAGGACCGGUACGGCCGCCACUCGUCGUACAAGAUAACCAUCUGCCAGUAUACA | 0.122 | 0.103 | 0.117 | 0.107 | 0.168 |
| AUUUUUUACAGAAGGAGCGUGUUAUAAUAAUCAUAUUGCUUAGCGAGUGAUGUUCGCUUUACACAGGUAGGUCGCUGUUUAUUUA [JR_Nu_ExcArginiB_Sub029] | 0.167 | 0.168 | 0.176 | 0.18 | 0.151 |
| UGUGUUGUUUUGAUGUUUGGUGUUGCAUGGCAGGAUAUCGUAGAGGCGAGAAGGGCUUGUGAGCGGUAUGAGUGAUGUUUGUAGG [bbgbmullin] | 0.433 | 0.27 | 0.406 | 0.4 | 0.299 |
| GGAAUGCUGUAAGGAUAUCUCGGACGGUUACUCCGUUUCUCGCGUGUAAGAAUCUGAGUGAUGUUUAGAGAAGGUACGCUGGUUA [theeternabot_exclusion_KL_FMN_B_21] | 0.178 | 0.233 | 0.24 | 0.225 | 0.149 |
| GGUCGAGUGAUGUUCGAUGUAGUGCAUUCAGAGGAUAUAGGAUGGGCUAGAAGGCUGAAAGGUGCUUCGAGUGAUGUUCGAGGAU [Exclusion FMN A GF 3] | 0.105 | 0.0807 | 0.126 | 0.115 | 0.089 |
| GCUAUGGUAGGAAGGAGCGCUUAUUUAUUUUUAAGAGUGAUGUUCGUUAGUAGAUAUUUAAAGCAGGUAGGUCGCCUACUAUAGC [Arginine B K4 14] | 0.0858 | 0.124 | 0.084 | 0.12 | 0.052 |
| UACUAUAGUGAUGUUAUAGAUAAACCAGAUACCAGUGUAACAUAACACCCUUGGCAGCUGAUGAGGGAACAUAUGAAUGCAUAUG [AstrosSSTHe-A#5newdesignED5.11] | 0.196 | 0.166 | 0.179 | 0.178 | 0.163 |
| AACGUUUUGAGAAGGAGCGCGUUAAGCAGUGAUGUUGCUUUAUUAUAUUUACUACAUAUUUCGCAGGUAGGUCGCUCAAUACGUA [JR_Nu_SSArginiB_Sub025] | 0.154 | 0.153 | 0.148 | 0.152 | 0.123 |
| CGCGCGCGCUGAGAGGCGCGCGCGAAUGAUACCAGUAUAUAAGAAUACCCUUGGCAGCAUAAGAAAGAUAUAGUGAUGUUGUAUA [SSTheophA.D] | 0.0753 | 0.199 | 0.0431 | 0.201 | 0.029 |
| UACUAUAGUGAUGUUAUAGAUAAACCAGAUACCAGUGUAACAUAACACCCUUGGCAGCUGAUGAGGGAACUAUUGAAAACAAUAG [AstroSTH-A#7newdesignED4.86] | 0.248 | 0.203 | 0.267 | 0.223 | 0.217 |
| UGCAGUGAUGUUGCUAUUUUUCUUGAUUAACGAGGACCGGUACGGCCGCCACUCGAUUUCUCUCUAAUCCAGUAUGUUGUUUGAU [whbob_EX_Tryp_A_t4] | 0.0979 | 0.139 | 0.112 | 0.142 | 0.0811 |
| UAUAUAGUGACGGCCGCCACUAUUGUGAUGUUAUUGUUAGAGUGAUGUUUUGUUGUUUAAUUUUGUAGGACCGGGUUAUAUGUUA [xxzsmullin] | 0.846 | 0.451 | 0.568 | 0.53 | 0.543 |
| CGGAUCGCAUCAGGAUAUCUCUCAUCAGUGAUGUUGGUGAAGCGUACGCGAAAGCGUACGCAGAUGAGAGAAGGGAUGCGAUCCG | 0.467 | 0.763 | 1.67 | 0.766 | 0.945 |
| UGACAUUGCUCAGAUACCAGACCUGAGGAACACCCAGGUGCCAAAACGUACUAAAUAAAGGUCCCUUGGCAGCUGAGCAAUGUCU [TheoBX 13] | 0.0457 | 0.0351 | 0.0354 | 0.0776 | 0.0597 |
| UGUCAUUGGUCGGCCGCCACUAGAAGGUCAAAGACCAUAGAGUGAUGUUCUGAGACGAAAGUCACUAGGACCGGGACCGAUGACU [TrypBS 6 #SwitchBubble #K4Middle] | 0.462 | 0.385 | 1.14 | 0.44 | 0.786 |
| GGAGGGAUCUCGGCCGCCACUCGUGGGAAAUGGGCCUCAGGGAUAUAGUGAUGUUAUGUAAAGAAGAGGACCGGGAGAAGGAAGG [ExTryptoB.Dg] | 0.319 | 0.269 | 0.33 | 0.366 | 0.24 |
